The values below come from paper PMC4939597, “Mechanism for insulin-like peptide 5 distinguishing the homologous relaxin family peptide receptor 3 and 4” (Scientific Reports, 2016).

No end group written: not given here.

Assay [1] concerns the target T1, human RXFP3 (Homo sapiens, UniProt Q9NSD7).
T1 construct: expressed in transfected cells; host or cells: HEK293T
T1 sequence (Q9NSD7 1-469): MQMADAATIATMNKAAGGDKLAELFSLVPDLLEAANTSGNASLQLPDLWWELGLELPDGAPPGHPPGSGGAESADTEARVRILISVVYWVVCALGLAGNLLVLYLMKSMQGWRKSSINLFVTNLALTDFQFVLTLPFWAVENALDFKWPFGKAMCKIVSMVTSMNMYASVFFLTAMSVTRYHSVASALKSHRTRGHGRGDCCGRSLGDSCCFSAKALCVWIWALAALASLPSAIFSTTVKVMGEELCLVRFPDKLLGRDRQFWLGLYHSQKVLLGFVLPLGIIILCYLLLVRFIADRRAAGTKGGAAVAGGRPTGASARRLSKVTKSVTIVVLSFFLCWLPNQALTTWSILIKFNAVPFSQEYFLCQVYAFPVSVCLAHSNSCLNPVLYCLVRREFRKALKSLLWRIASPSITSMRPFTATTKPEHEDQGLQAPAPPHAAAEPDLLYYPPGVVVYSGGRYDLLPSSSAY
In words: Receptor binding assay, competition with NanoLuc-conjugated R3/I5 tracer. How it is done:
(§1) Figure 3 Receptor binding activities of the mature INSL5 and R3/I5 mutants towards RXFP3 and RXFP4. A NanoLuc-conjugated R3/I5 peptide was used as tracer and HEK293T cells transiently overexpressing human RXFP3 or human RXFP4 were used as receptor source. The tracer concentration used in these assays was 0.5 nM. The nonspecific binding was obtained by competition with 1.0 μM of relaxin-3. The measured data were expressed as mean ± SE (n = 3) and fitted to sigmoidal curves using the software SigmaPlot 10.0.
(§2) The receptor binding assays of the mature INSL5 and R3/I5 mutants were carried out using a NanoLuc-conjugated R3/I5 peptide as tracer and the human embryonic kidney (HEK) 293T cells transiently overexpressing human RXFP3 or human RXFP4 as receptor source. Nonspecific binding was obtained by competition with 1.0 μM of human relaxin-3. Briefly, HEK293T cells were transiently transfected with the expression construct of human RXFP3 or human RXFP4. Next day, the transfected cells were trypsinised, seeded into a 96-well plate, and continuously cultured for 24–36 h to confluence. To start binding assay, the medium was removed and the binding solution (serum-free DMEM medium plus 1% bovine serum albumin) containing 0.5 nM of the NanoLuc-conjugated R3/I5 tracer and varied concentrations of competitor was added (100 μl/well). After incubation at 21 °C for 2 h, the binding solution was removed and the cells were washed twice by ice-cold phosphate-buffered saline (200 μl/well for each wash). Thereafter, the cells were lysed by lysis solution (100 μl/well, from Promega, Madison, WI, USA) and the cell lysate was transferred to a white opaque 96-well plate (50 μl/well). After mixing with the freshly diluted substrate (50 μl/well), bioluminescence was immediately measured on a SpectraMax M5 plate reader (Molecular Devices, Sunnyvale, CA, USA) using the luminescence mode. The measured bioluminescence data were expressed as mean ± SE (n = 3) and fitted to sigmoidal curves using the SigmaPlot10.0 software.

Assay [2] addresses T2, human RXFP4 (Homo sapiens, UniProt Q8TDU9).
T2 construct: expressed in transfected cells; host or cells: HEK293T
Described as above. How it is done:
as §1, §2

The target in assay [3] is T1, human RXFP3. In words: Receptor activation assay, CRE-controlled NanoLuc reporter. The format is cell-based. How it is done:
(§3) Figure 4 Receptor activation activities of the mature INSL5 and R3/I5 mutants towards RXFP3 and RXFP4. HEK293T cells transiently cotransfected by human RXFP3 or human RXFP4 and a CRE-controlled NanoLuc reporter were used for the activation assays. The measured data were expressed as mean ± SE (n = 3) and fitted to sigmoidal or linear curves using the software SigmaPlot 10.0.
(§4) The receptor activation assays of the mature INSL5 and R3/I5 mutants were carried out using a cAMP-response element (CRE)-controlled NanoLuc reporter according to our previous procedure. Briefly, HEK293T cells were transiently cotransfected with the expression construct of human RXFP3 or human RXFP4 and the CRE-controlled NanoLuc reporter vector pNL1.2/CRE. Next day, the transfected cells were trypsinised, seeded into a 96-well plate, and continuously cultured for 24–36 h to ~90% confluence. To start activation assay, the medium was removed and the activation solution (serum-free DMEM medium plus 1% bovine serum albumin) containing 1.0 μM of forskolin and varied concentrations of peptide was added (100 μl/well). After being continuously cultured at 37 °C for 4 h, the activation solution was removed and the cells were lysed by lysis solution (100 μl/well, from Promega). The cell lysate was then transferred to a white opaque 96-well plate (50 μl/well), mixed with the freshly diluted substrate (50 μl/well), and bioluminescence was immediately measured on a SpectraMax M5 plate reader (Molecular Devices) using the luminescence mode. The measured bioluminescence data were expressed as mean ± SE (n = 3) and fitted to sigmoidal or linear curves using the SigmaPlot10.0 software.

Assay [4] addresses T2, human RXFP4. Described as above. Format: cell-based. How it is done:
as §3, §4

The mark [5] stands for this setting: HEK293T cells transiently overexpressing human RXFP3, 0.5 nM NanoLuc-conjugated R3/I5 tracer, 21 °C, 2 h, mean ± SE, n = 3, SEM.
Where [6] appears, read: HEK293T cells transiently overexpressing human RXFP4, 0.5 nM NanoLuc-conjugated R3/I5 tracer, 21 °C, 2 h, mean ± SE, n = 3, SEM.
[7] abbreviates: HEK293T cells cotransfected with human RXFP3 and CRE-controlled NanoLuc reporter, 1.0 μM forskolin, 37 °C, 4 h, mean ± SE, n = 3, N.D., not detectable, SEM.
Setting [8] is: HEK293T cells cotransfected with human RXFP4 and CRE-controlled NanoLuc reporter, 1.0 μM forskolin, 37 °C, 4 h, mean ± SE, n = 3, SEM.

T2 sequence (Q8TDU9 whole entry): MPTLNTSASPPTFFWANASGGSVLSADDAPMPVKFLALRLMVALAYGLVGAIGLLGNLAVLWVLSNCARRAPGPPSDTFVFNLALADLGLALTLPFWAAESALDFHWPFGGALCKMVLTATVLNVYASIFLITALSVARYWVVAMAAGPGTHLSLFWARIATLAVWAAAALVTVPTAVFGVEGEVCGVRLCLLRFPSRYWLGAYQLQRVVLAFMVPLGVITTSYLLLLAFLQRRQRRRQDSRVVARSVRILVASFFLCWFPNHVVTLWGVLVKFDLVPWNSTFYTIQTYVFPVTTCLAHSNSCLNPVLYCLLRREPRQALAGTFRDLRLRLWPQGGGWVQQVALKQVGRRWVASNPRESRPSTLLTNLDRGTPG

As for `CC[C@H](C)[C@@H]1NC(=O)[C@H](Cc2ccccc2)NC(=O)[C@H](CCC(=O)O)NC(=O)[C@H](CCCNC(=N)N)NC(=O)CNC(=O)[C@@H](NC(=O)[C@H](CC(C)C)NC(=O)[C@H](CCCNC(=N)N)NC(=O)[C@@H](NC(=O)CNC(=O)[C@H](Cc2ccc(O)cc2)NC(=O)[C@@H]2CCCN2C(=O)[C@H](C)NC(=O)[C@H](C)NC(=O)[C@@H](N)CCCNC(=N)N)C(C)C)CSSC[C@@H]2NC(=O)[C@@H](NC(=O)[C@H](CO)NC(=O)[C@H](CO)NC(=O)[C@H](CO)NC(=O)[C@H](CC(C)C)NC(=O)CNC(=O)[C@H](C)NC(=O)[C@H](CC(C)C)NC(=O)[C@@H](NC(=O)[C@@H](N)CC(=O)O)C(C)C)CSSC[C@H](NC(=O)CNC(=O)[C@H](Cc3c[nH]c4ccccc34)NC(=O)[C@H](CCCCN)NC2=O)C(=O)N[C@@H](CO)C(=O)N[C@@H](CCCCN)C(=O)N[C@@H](CO)C(=O)N[C@@H](CCC(=O)O)C(=O)N[C@@H]([C@@H](C)CC)C(=O)N[C@@H](CO)C(=O)N[C@@H](CO)C(=O)N[C@@H](CC(C)C)C(=O)N[C@H](C(=O)O)CSSC[C@@H](C(=O)NCC(=O)NCC(=O)N[C@@H](CO)C(=O)N[C@@H](CCCNC(=N)N)C(=O)N[C@@H](Cc2c[nH]c3ccccc23)C(=O)O)NC(=O)[C@H]([C@@H](C)O)NC(=O)[C@H](Cc2ccccc2)NC(=O)[C@H]([C@@H](C)CC)NC(=O)[C@H](C(C)C)NC(=O)[C@H](C)NC(=O)[C@H](CCCNC(=N)N)NC1=O` [relaxin-3, reference compound], the IC50 is 2.04 nM in assay [1] (HEK293T cells transiently overexpressing human RXFP3, 0.5 nM NanoLuc-conjugated R3/I5 tracer, 21 °C, 2 h, mean ± SE, n = 3, SEM, read-out: pIC50 RXFP3 (converted)) and 12.3 nM in assay [2] (HEK293T cells transiently overexpressing human RXFP4, 0.5 nM NanoLuc-conjugated R3/I5 tracer, 21 °C, 2 h, mean ± SE, n = 3, SEM, read-out: pIC50 RXFP4 (converted)). The EC50 is 0.0245 nM in assay [3] (HEK293T cells cotransfected with human RXFP3 and CRE-controlled NanoLuc reporter, 1.0 μM forskolin, 37 °C, 4 h, mean ± SE, n = 3, N.D., not detectable, SEM, read-out: pEC50 RXFP3 (converted)); 0.105 nM in assay [4] (HEK293T cells cotransfected with human RXFP4 and CRE-controlled NanoLuc reporter, 1.0 μM forskolin, 37 °C, 4 h, mean ± SE, n = 3, SEM, read-out: pEC50 RXFP4 (converted)).

Consider “R3/I5: chimeric peptide containing the B-chain of relaxin-3 and the A-chain of INSL5 [reference compound]”, for which, in assay [1] (setting [5]), the “pIC50 RXFP3” value came to 8.85 ± 0.02. Moreover, the “pIC50 RXFP4” value in assay [2] (setting [6]) amounted to 8.24 ± 0.03. Besides, the “pEC50 RXFP3” value in assay [3] (setting [7]) is recorded as 10.44 ± 0.03. The “pEC50 RXFP4” value in assay [4] (setting [8]) is on record as 10.32 ± 0.03.

As for “[A(B20)G,S(B21)G]INSL5: recombinant mature two-chain INSL5 mutant (Insulin-like peptide INSL5 B … KESVRLCGLEYIRTVIYICGGSRW; Insulin-like peptide INSL5 A … QDLQTLCCTDGCSMTDLSALC; not fully specified; ends and bridges not checked; UniProt Q9Y5Q6 23-46; Q9Y5Q6 115-135, looked up, variant A20G S21G)”, the “pIC50 RXFP3” value in assay [1] (setting [5]) turned out to be 6.01 ± 0.06. In addition, the “fold lower binding potency towards RXFP3 compared with wild-type INSL5” value in assay [1] (lower than wild-type INSL5) is listed as ~ 18 fold. Further, the “pIC50 RXFP4” value in assay [2] (setting [6]) came out at 6.39 ± 0.05. The “fold lower binding potency towards RXFP4 compared with wild-type INSL5” value in assay [2] (lower than wild-type INSL5) is listed as ~ 23 fold. Also, in assay [3] (setting [7]), the “pEC50 RXFP3” value stood at 6.90 ± 0.04. In assay [3] (lower than relaxin-3), the “fold lower activation potency towards RXFP3 than relaxin-3” value was ~ 5000 fold. In addition, the “pEC50 RXFP4” value in assay [4] (setting [8]) is recorded as 8.59 ± 0.05. In addition, the “fold lower activation potency towards RXFP4 compared with INSL5” value in assay [4] (lower than wild-type INSL5) is listed as ~ 6 fold.

With “[I(B18)T]INSL5: recombinant mature two-chain INSL5 mutant (Insulin-like peptide INSL5 B … KESVRLCGLEYIRTVIYTCASSRW; Insulin-like peptide INSL5 A … QDLQTLCCTDGCSMTDLSALC; ends and bridges not checked; cysteine pairing not given here; UniProt Q9Y5Q6 23-46; Q9Y5Q6 115-135, looked up, variant I18T)”, the “pIC50 RXFP3” value in assay [1] (setting [5]) turned out to be 7.07 ± 0.04. For the same compound, the “pIC50 RXFP4” value in assay [2] (setting [6]) is 7.43 ± 0.05. In addition, in assay [3] (CRE-controlled NanoLuc reporter, HEK293T cells, human RXFP3), the “activation potency towards RXFP3, result in words” value was “no detectable activation potency”. The “pEC50 RXFP4” value in assay [4] (setting [8]) is listed as 9.31 ± 0.08.
